# Reference: publication doi:10.1101/2024.06.17.599268 (bioRxiv, 2024)
# B1: bMERB_(V978A) (domain or fragment)
# chain: KEEEMKRFCKAQTIQRRLNEIEAALRELEAEGVKLELALRRQSSSPEQQKKLWVGQLLQLADKKNSLVAEEAELMITVQELNLEEKQWQLDQELRGYMNREENLKTAADRQAEDQVLRKLVDLVNQRDALIRFQEERRLSELALGTGAQG
# What was measured:
# Rab10_(1-175) = target: T1, Rab10_(1-175) (human, UniProt P61026 1-175); experiment: crystal structure
# T1 sequence: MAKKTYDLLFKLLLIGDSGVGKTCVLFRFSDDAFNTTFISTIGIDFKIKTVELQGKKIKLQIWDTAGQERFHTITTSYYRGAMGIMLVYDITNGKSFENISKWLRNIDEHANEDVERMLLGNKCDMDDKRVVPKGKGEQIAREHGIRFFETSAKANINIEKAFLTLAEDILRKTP
# Rab8a_(1-176) = target: T2, Rab8a_(1-176) (human, UniProt P61006 1-176); experiment: ITC
# T2 sequence: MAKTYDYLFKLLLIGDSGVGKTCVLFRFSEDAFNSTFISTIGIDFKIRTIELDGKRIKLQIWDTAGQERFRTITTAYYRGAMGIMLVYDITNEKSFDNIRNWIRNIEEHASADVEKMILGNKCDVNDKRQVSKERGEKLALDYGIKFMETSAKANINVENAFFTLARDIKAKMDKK
# [1] = target: T3, Mical1 MO-CH-LIM (residues 1-781) (human, UniProt Q8TDZ2 1-781); experiment: ITC
# T3 sequence: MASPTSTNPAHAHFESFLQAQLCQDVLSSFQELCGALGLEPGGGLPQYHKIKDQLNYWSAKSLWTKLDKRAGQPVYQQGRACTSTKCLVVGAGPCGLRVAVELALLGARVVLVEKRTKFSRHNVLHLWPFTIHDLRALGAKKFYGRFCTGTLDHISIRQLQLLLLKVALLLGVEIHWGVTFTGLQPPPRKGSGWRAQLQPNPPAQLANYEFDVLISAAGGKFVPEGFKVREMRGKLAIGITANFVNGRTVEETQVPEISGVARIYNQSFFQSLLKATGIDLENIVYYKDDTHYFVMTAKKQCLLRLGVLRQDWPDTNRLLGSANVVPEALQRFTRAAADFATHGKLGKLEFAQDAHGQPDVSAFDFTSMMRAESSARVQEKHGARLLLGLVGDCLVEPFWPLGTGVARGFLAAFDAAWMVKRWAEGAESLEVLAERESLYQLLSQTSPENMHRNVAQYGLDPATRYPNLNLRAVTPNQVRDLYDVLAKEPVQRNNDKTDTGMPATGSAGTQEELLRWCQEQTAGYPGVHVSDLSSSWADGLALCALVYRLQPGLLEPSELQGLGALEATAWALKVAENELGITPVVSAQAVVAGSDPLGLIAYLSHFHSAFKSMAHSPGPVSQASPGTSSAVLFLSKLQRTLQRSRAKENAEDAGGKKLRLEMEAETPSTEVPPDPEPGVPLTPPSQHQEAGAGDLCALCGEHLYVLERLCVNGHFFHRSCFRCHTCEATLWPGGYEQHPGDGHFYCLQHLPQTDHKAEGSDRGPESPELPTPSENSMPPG
binder,measurement,setting,value
B1,binding result,Rab10_(1-175),binds
same,binding result,Rab8a_(1-176),binds
same,fold reduction in affinity against wild-type bMERB,[1],2 fold
